Positions count from the first letter of the chain named. Names and notes keep the numbering of the source.

The target in test [1] is T1, endothelial protein C receptor (EPCR) on cells (Homo sapiens (Human), UniProt Q9UNN8).
T1 sequence: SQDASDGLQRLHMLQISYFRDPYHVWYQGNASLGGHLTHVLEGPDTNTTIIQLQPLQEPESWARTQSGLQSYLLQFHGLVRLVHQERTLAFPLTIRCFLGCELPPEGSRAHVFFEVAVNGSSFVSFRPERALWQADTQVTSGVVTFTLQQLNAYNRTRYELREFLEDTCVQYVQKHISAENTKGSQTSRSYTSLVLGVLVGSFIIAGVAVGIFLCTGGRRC
The experiment in a line: cell-based or functional assay.

For test [2], the target named is T2, protease activated receptor-1 (PAR-1) (Homo sapiens (Human), UniProt P25116).
T2 sequence: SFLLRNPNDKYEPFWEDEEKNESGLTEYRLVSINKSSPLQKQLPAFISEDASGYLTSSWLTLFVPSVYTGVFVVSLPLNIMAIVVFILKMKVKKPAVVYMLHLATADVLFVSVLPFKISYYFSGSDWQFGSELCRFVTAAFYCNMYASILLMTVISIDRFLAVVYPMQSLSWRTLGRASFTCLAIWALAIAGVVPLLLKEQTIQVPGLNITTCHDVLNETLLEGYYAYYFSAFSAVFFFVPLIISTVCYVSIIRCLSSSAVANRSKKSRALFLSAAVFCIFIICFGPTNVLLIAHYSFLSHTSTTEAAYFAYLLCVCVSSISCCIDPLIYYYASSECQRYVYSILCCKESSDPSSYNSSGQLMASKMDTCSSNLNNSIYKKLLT
The experiment in a line: cell-based or functional assay.

In test [3] the target is T3, endothelial protein C receptor (EPCR), as in the binding assays (Homo sapiens (Human), UniProt Q9UNN8).
T3 sequence: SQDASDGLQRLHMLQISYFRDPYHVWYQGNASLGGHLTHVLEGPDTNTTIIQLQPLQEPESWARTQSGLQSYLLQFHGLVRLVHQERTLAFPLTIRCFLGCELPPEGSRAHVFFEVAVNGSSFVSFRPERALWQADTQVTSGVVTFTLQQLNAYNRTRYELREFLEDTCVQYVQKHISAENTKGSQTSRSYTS
Kind of test: apparent Kd; binding to immobilized soluble EPCR and to K293 cells transfected with wtEPCR (format of the value not told).

The target of test [4] is T1, endothelial protein C receptor (EPCR) …. Kind of test: cell-based or functional assay. The source holds these as a separate data set.
The target in test [5] is T2, protease activated receptor-1 (PAR-1). The experiment in a line: cell-based or functional assay. This is another data set of the same source.
The target of test [6] is T1, endothelial protein C receptor (EPCR) …. The experiment in a line: cell-based or functional assay. This is another data set of the same source.
Test [7] addresses T2, protease activated receptor-1 (PAR-1). The experiment in a line: cell-based or functional assay. The source holds these as a separate data set.
The next test addresses factor Va (human, UniProt P12259). Kind of test: cell-based or functional assay.

B1: RR229/230AA plus KKK191-193AAA-APC (enzyme)
chain: ANSFLEELRHSSLERECIEEICDFEEAKEIFQNVDDTLAFWSKHVDGDQCLVLPLEHPCASLCCGHGTCIDGIGSFSCDCRSGWEGRFCQREVSFLNCSLDNGGCTHYCLEEVGWRRCSCAPGYKLGDDLLQCHPAVKFPCGRPWKRMEKKRSHLKRDTEDQEDQVDPRLIDGKMTRRGDSPWQVVLLDSAAALACGAVLIHPSWVLTAAHCMDESKKLLVRLGEYDLAAWEKWELDLDIKEVFVHPNYSKSTTDNDIALLHLAQPATLSQTIVPICLPDSGLAERELNQAGQETLVTGWGYHSSREKEAKRNRTFVLNFIKIPVVPHNECSEVMSNMVSENMLCAGILGDRQDACEGDSGGPMVASFHGTWFLVGLVSWGEGCGLLHNYGVYTKVSRYLDWIHGHIRDKEAPQKSWAP
With B1, the “half-maximum inhibition of staurosporine-induced endothelial cell apoptosis (Example 5)” value in test [1] and in test [2] was 0.7 nM each time. The Kd in test [3] was 29 nM.

B2: KKK191-193AAA-APC (enzyme)
chain: B1 chain with A229R, A230R
As for B2, the “half-maximum inhibition of staurosporine-induced apoptosis (EA.hy926 cells, Apopercentage dye)” value in test [1] and in test [2] was 0.14 nM in each case. In addition, the “half-maximum inhibition of staurosporine-induced apoptosis (Eahy926 cells, Apopercentage staining)” value in test [1] and in test [2] was 0.2 nM throughout. In addition, the “reduction of activated caspase-3-positive endothelial cells after staurosporine” value in test [1] and in test [2] was approximately 70% throughout. For the same molecule, the “cytoprotective activity (% wt-APC)” value in test [4] and in test [5] was 120 % wt-APC in each case. In addition, the “cytoprotective activity (% rwt-APC), from the concentrations for half-maximal inhibition of apoptosis” value in test [6] and in test [7] was 114 % rwt-APC throughout. For the same molecule, the “anticoagulant activity (% rwt-APC), APTT clotting assay in human plasma” value in the test with factor Va is 4.6 % rwt-APC.

B3: R306A/K311A/R312A/R314A-APC (enzyme)
chain: B1 chain with A191K, A192K, A193K, A229R, A230R, R306A, K311A, R312A, R314A
As for B3, the “cytoprotective activity (% wt-APC), staurosporine-induced apoptosis of Eahy926 cells” value in test [4] and in test [5] was less than 1 % wt-APC each time.

The values are drawn from patent publication US9192657B2, “Activated protein C variants with normal cytoprotective activity but reduced anticoagulant activity” (The Scripps Research Institute, dated 2015).
